Measured values: publication PMC2064834 (The Journal of Cell Biology, 2007)
Values belong to the molecule of their own block, whether it stands above or below them.

What was measured:
[1] = molecular target: T1, Hs-laforin (Homo sapiens, UniProt O95278); assay: p-NPP hydrolysis, absorbance at […] nm; format: biochemical; conditions: pH 5.5; 37°C; 2 mM DTT; artificial substrate
T1 sequence (O95278 1-331): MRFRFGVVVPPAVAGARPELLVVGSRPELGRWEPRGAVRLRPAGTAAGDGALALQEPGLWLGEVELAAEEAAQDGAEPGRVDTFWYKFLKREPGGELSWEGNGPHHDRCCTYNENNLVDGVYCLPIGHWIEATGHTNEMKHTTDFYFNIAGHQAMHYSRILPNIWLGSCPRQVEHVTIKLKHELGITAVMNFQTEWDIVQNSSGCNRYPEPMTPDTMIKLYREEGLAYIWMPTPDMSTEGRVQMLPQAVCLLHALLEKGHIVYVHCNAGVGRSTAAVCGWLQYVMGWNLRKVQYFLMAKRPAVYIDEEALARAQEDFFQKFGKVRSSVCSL

[2] = substrate: O=[N+]([O-])c1ccc(OP(=O)(O)O)cc1; assay: purified protein; conditions: pH 6.0, 37°C, 2 mM DTT, artificial substrate

- Km [1]: 323 µM
Molecule: O=[N+]([O-])c1ccc(OP(=O)(O)O)cc1 [p-NPP]

B1: Δ52-SEX4 (Arabidopsis thaliana) (protein)
chain: AVSESKSSSEMSGVAKDEEKSDEYSQDMTQAMGAVLTYRHELGMNYNFIRPDLIVGSCLQTPEDVDKLRKIGVKTIFCLQQDPDLEYFGVDISSIQAYAKKYSDIQHIRCEIRDFDAFDLRMRLPAVVGTLYKAVKRNGGVTYVHCTAGMGRAPAVALTYMFWVQGYKLMEAHKLLMSKRSCFPKLDAIRNATIDILTGLKRKTVTLTLKDKGFSRVEISGLDIGWGQRIPLTLDKGTGFWILKRELPEGQFEYKYIIDGEWTHNEAEPFIGPNKDGHTNNYAKVVDDPTSVDGTTRERLSSEDPELLEEERSKLIQFLETCSEAEV
- Km [2]: 410 µM
- Vmax [2]: 2.41 µmol/min/mg
- kcat [2]: 1.54 s⁻¹
- kcat/Km [2]: 3756 M⁻¹ s⁻¹
